The text below walks through data of PMC13499124.

What all share (assay): MST; labelled JIP3/4 fragment (Blue-NHS dye) constant at 20 nM, KIF5B fragment titrated 120 pM to 4 uM (up to 38.2 uM when needed); 50 mM Tris pH 8.0, 200 mM NaCl, 10 mM MgCl2, 0.05% Tween 20; room temperature; Monolith NT.115, premium capillaries, MST-on 0.5-1.5 s; 1:1 Kd fit; three replicates; the paper calls its affinities relative measurements
In test [1] the target is JIP3-N^JIP4-RH1-lz3 chimera (JIP3 variant incorporating the N-terminus of JIP4) (not stated | mouse).
In another test the target is JIP4-N-RH1-lz3-G40H-R41C (UniProt O60271).
Sequence of JIP4-N-RH1-lz3-G40H-R41C (O60271 whole entry G40H/R41C): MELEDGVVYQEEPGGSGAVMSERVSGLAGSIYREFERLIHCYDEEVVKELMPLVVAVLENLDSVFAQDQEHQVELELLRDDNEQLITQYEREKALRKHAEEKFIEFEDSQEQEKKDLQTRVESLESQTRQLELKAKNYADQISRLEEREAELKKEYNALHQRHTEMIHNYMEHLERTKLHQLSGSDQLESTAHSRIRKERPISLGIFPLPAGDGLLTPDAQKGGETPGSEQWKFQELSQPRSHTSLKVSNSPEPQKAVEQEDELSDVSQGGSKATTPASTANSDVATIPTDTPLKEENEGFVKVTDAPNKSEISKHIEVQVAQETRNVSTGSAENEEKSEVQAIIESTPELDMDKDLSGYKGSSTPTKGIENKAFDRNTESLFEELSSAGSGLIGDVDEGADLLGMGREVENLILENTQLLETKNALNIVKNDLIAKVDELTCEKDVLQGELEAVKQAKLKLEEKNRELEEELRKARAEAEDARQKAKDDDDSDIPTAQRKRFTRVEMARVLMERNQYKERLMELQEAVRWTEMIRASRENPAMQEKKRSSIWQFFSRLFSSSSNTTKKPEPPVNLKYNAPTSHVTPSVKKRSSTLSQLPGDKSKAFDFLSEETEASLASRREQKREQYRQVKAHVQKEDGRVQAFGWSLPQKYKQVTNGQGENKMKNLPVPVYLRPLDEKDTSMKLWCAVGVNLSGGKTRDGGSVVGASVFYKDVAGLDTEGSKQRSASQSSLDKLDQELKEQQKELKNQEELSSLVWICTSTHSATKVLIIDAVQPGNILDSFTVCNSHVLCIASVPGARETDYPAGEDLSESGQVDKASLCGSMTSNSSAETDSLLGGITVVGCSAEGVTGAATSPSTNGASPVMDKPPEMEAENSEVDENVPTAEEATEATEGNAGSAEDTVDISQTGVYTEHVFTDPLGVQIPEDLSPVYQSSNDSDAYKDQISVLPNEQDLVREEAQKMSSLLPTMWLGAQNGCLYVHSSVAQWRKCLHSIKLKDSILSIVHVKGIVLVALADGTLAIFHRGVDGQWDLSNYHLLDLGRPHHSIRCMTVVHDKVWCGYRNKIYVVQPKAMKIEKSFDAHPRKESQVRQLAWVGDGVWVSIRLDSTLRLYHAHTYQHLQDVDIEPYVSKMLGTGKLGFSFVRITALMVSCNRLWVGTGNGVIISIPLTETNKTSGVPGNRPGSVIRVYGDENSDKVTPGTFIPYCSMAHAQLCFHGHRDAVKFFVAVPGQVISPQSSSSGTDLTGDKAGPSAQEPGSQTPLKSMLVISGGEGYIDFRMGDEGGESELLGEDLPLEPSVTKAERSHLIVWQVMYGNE
Test [2] has as its target JIP4-N^JIP3-RH1-lz3 chimera (JIP4 variant incorporating the N-terminus of JIP3) (mouse | not stated).

Sequence of KIF5B-CC3b-CC4-dt fragment (P33176 771-963): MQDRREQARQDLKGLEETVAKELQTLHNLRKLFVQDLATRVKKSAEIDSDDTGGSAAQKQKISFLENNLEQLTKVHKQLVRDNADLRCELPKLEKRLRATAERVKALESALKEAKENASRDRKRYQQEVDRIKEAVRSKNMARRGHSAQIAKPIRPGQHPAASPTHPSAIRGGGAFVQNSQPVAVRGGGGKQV

By Kd is commonly meant the constant that tells how readily two partners part at equilibrium. Low readings indicate a tighter complex, high ones a looser complex. In the case of “KIF5B-CC3b-CC4-dt fragment (from UniProt P33176 771-963) (domain or fragment)”, the values for the equilibrium dissociation constant (Kd) (in test [1]; in the test with JIP4-N-RH1-lz3-G40H-R41C; in test [2]) were 29.6 nM, 132 nM and 246 nM, respectively.
